T1: APRIL (Acro Biosystems, Cat: APL-H52D1) (UniProt O75888 115-250, limits assumed)
T1 construct: also called ARPIL
T1 sequence (looked up): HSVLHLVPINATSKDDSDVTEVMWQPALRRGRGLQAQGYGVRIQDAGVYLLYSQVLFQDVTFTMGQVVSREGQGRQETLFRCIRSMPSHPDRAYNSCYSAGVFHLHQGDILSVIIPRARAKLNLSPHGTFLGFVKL


What was measured:
[1] = target: T2, BAFF (PeproTech, Cat: 310-13) (UniProt Q9Y275 134-285); experiment: ELISA, plate coated with BAFF 1 ug/mL, HRP anti-human Fc, OD450
Experimental: (§1) BAFF (PeproTech, Cat: 310-13) was diluted to 1 μg/mL with PBS, and a 96-well plate was coated with the dilution overnight at 4° C. The plate was washed with PBST and blocked with Blocking Buffer (PBST containing 1% BSA) at 37° C. for 1 h. The plate was tapped. The test antibodies were diluted with Blocking Buffer. Incubation was performed at 37° C. for 1.5 h. The plate was washed with PBST. An HRP-mouse anti-human Fc antibody (GenScript, Cat: A01854-200) was diluted with Blocking Buffer. Incubation was performed at 37° C. for 40 min. The plate was washed with PBST. 100 μL of TMB substrate solution (Biopanda, Cat: TMB-S-003) was added, and color development was performed at 37° C. for 3 min. 100 μL of ELISA stop solution (Solarbio, Cat: C1058) was added. OD450 was measured.

[2] = target: T2, BAFF (PeproTech, Cat: 310-13); experiment: ELISA, BAFF coated; reference telitacicept
Experimental: as §1, with “The capabilities of TACI-BCMA fusion proteins (B575701, B575702, B575703, and B575704) to bind to BAFF and APRIL were assessed by ELISA as follows: BAFF (PeproTech,” for “BAFF (PeproTech,”, “Cat: 310-13) or ARPIL (Acro Biosystems, Cat: APL-H52D1) was diluted” for “Cat: 310-13) was diluted”, “96-well plate (Costar, Cat: 3590) was coated” for “96-well plate was coated”
(§2) The capability of B575702 to bind to BAFF was consistent with that of B575704, and their EC₅₀ values decreased to ¼ of that of telitacicept. The capability of B575701 to bind to BAFF was consistent with that of B575703, and their EC₅₀ values decreased to ½ of that of telitacicept.

[3] = target: T2, BAFF (PeproTech, Cat: 310-13); experiment: ELISA, BAFF coated at 1 ug/mL, anti-human Fc-HRP, OD450
Experimental: as §1, with “The capabilities of TACI-BCMA fusion proteins (B575701, B575702, B575703, and B575704) to bind to BAFF and APRIL were assessed by ELISA as follows: BAFF (PeproTech,” for “BAFF (PeproTech,”, “Cat: 310-13) or ARPIL (Acro Biosystems, Cat: APL-H52D1) was diluted” for “Cat: 310-13) was diluted”, “96-well plate (Costar, Cat: 3590) was coated” for “96-well plate was coated”
as §2

[4] = target: T1, APRIL (Acro Biosystems, Cat: APL-H52D1); experiment: ELISA, APRIL coated at 1 ug/mL, anti-human Fc-HRP, OD450
Experimental: as §1, with “The capabilities of TACI-BCMA fusion proteins (B575701, B575702, B575703, and B575704) to bind to BAFF and APRIL were assessed by ELISA as follows: BAFF (PeproTech,” for “BAFF (PeproTech,”, “Cat: 310-13) or ARPIL (Acro Biosystems, Cat: APL-H52D1) was diluted” for “Cat: 310-13) was diluted”, “96-well plate (Costar, Cat: 3590) was coated” for “96-well plate was coated”
The capabilities of the 4 fusion proteins to bind to APRIL were all stronger than that of telitacicept, and their EC₅₀ values decreased to ¼ to ⅓ of that of telitacicept.

| EC50 (read off the curve) [1] | EC50 relative to telitacicept [2] | EC50 [3] | Emax [3] | EC50 [4] | Emax [4] | Binder |
| --- | --- | --- | --- | --- | --- | --- |
| ~0.3 nM | – | – | – | – | – | Atacicept (Fc fusion) AMRSCPEEQYWDPLLGTCMSCKTICNHQSQRTCAAFCRSLSCRKEQGKFYDHLLRDCISCASICGQHPKQCAYFCENKLRSEPKSSDKTHTCPPCPAPEAEGAPSVFLFPPKPKDTLMISRTPEVTCVVVDVSHEDPEVKFNWYVDGVEVHNAKTKPREEQYNSTYRVVSVLTVLHQDWLNGKEYKCKVSNKALPSSIEKTISKAKGQPREPQVYTLPPSRDELTKNQVSLTCLVKGFYPSDIAVEWESNGQPENNYKTTPPVLDSDGSFFLYSKLTVDKSRWQQGNVFSCSVMHEALHNHYTQKSLSLSPGK |
| – | 0.5 fold | 0.324 nM | 2.31 nM (as printed) | 0.205 nM | 2.69 | B575701 (Fc fusion, TACI-BCMA fusion protein; also called TACI-d2-BCMA-ECD-Fc) LSCRKEQGKFYDHLLRDCISCASICGQHPKQCAYFCENKLRSPGMLQMAGQCSQNEYFDSLLHACIPCQLRCSSNTPPLTCQRYCNASVTNSVKGTNADKTHTCPPCPAPEAEGAPSVFLFPPKPKDTLMISRTPEVTCVVVDVSHEDPEVKFNWYVDGVEVHNAKTKPREEQYNSTYRVVSVLTVLHQDWLNGKEYKCKVSNKALPSSIEKTISKAKGQPREPQVYTLPPSRDELTKNQVSLTCLVKGFYPSDIAVEWESNGQPENNYKTTPPVLDSDGSFFLYSKLTVDKSRWQQGNVFSCSVMHEALHNHYTQKSLSLSPGK |
| – | 0.25 fold | 0.187 nM | 2.29 nM (as printed) | 0.189 nM | 2.68 | B575704 (Fc fusion, TACI-BCMA fusion protein; also called BCMA-ECD-TACI-T2-Fc) MLQMAGQCSQNEYFDSLLHACIPCQLRCSSNTPPLTCQRYCNASVTNSVKGTNASRVDQEERFPQGLWTGVAMRSCPEEQYWDPLLGTCMSCKTICNHQSQRTCAAFCRSLSCRKEQGKFYDHLLRDCISCASICGQHPKQCAYFCENKLRSPVNLPPELDKTHTCPPCPAPEAEGAPSVFLFPPKPKDTLMISRTPEVTCVVVDVSHEDPEVKFNWYVDGVEVHNAKTKPREEQYNSTYRVVSVLTVLHQDWLNGKEYKCKVSNKALPSSIEKTISKAKGQPREPQVYTLPPSRDELTKNQVSLTCLVKGFYPSDIAVEWESNGQPENNYKTTPPVLDSDGSFFLYSKLTVDKSRWQQGNVFSCSVMHEALHNHYTQKSLSLSPGK |
